Data from US20240392013A1 (STELEXIS THERAPEUTICS, published 2024).
Positions count from the first letter of the chain named. Blank lines part the entries; values can stand above or below the binder they belong to.

Tests used:
[1] = molecular target: T1, cyIL1RAP-His (Lake Pharma) (cynomolgus monkey, UniProt A0A2K5X5J5 21-367); experiment: Octet BLI; mAb captured on anti-mouse IgG Fc sensor; cyIL1RAP-His analyte
T1 construct: Bought protein (Lake Pharma, lot 16205819371); also called cynomolgus IL1RAP; monkey IL1RAP; not shown: His tag
T1 sequence: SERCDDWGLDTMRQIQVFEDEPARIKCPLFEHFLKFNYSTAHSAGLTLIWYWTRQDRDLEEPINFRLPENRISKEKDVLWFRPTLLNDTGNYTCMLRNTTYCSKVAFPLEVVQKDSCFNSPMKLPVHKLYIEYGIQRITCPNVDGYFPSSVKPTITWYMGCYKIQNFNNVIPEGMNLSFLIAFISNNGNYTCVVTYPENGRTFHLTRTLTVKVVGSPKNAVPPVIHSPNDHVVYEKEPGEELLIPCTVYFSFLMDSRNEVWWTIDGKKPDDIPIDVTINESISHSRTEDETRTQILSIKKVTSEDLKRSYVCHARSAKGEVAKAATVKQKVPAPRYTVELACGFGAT
Procedure: (§1) Antibodies were diluted in kinetics buffer (0.1% BSA, 0.02% Tween-20 and 0.05% NaN₃ in PBS) and loaded onto 16 channel anti-mouse IgG Fc capture sensors (AMC, Cat #2001073; Sartorius, Göttingen, Germany). Human, huIL1RAP-His (Sino Biological, lot: MB08MA1301), and monkey, cyIL1RAP-His (Lake Pharma, NY, USA; lot:16205819371) proteins were titrated starting from the highest concentration of 100 nM and followed by 50 nM and 25 nM. Purified antibodies were loaded at 5 μg/ml in kinetics buffer. The experimental parameters selected to determine the kinetic constants were Baseline for 60 s, Loading of antibody to sensor for 180 s, Association of analyte to antibody for 120 s, Dissociation for 1200 s and Regeneration in 10 mM Glycine pH 1.7 for 4×30 s.
(§2) Regeneration cycle tracking was selected for 12 cycles. Binding to human and cynomolgus IL1RAP was measured and KD (M) kinetics were calculated. Also, the disassociation rate (Kdis) (1/s) and association rate (Kon) (1/Ms) kinetics were calculated (data not shown).

[2] = molecular target: T2, IL1RAP on HEK-Blue IL1β / HEK-Blue IL33 reporter cells (UniProt Q9NPH3 21-570, limits assumed); experiment: cell-based or functional assay
T2 sequence (looked up): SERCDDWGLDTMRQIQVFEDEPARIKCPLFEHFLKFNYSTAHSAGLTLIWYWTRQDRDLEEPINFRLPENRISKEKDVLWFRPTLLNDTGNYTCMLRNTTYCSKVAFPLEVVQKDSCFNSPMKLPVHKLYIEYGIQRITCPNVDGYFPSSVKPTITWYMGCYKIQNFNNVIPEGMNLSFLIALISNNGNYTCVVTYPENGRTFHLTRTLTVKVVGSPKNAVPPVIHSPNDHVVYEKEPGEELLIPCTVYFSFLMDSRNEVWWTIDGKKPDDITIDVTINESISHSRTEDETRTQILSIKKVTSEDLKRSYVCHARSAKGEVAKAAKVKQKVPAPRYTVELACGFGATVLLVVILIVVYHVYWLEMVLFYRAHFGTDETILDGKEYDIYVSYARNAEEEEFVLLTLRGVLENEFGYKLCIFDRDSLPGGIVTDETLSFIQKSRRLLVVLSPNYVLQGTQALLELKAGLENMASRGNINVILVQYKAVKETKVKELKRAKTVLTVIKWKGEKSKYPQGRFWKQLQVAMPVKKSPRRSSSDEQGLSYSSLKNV

[3] = molecular target: T3, recombinant mouse IL1RAP protein (Sino Biological, Cat #52657-M08H) (mouse, UniProt Q61730 21-359); experiment: cell-free ELISA, mouse IL1RAP coated; data not shown
T3 construct: Bought protein
T3 sequence (looked up): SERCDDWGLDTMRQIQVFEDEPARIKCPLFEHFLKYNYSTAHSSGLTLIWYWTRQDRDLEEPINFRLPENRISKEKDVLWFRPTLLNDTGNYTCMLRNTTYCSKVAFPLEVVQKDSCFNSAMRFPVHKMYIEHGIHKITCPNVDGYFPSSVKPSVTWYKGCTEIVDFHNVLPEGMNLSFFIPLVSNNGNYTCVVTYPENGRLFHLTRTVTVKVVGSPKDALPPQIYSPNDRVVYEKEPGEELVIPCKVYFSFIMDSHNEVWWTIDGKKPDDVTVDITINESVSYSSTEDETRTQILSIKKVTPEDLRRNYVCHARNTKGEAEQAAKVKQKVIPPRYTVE
Procedure: Recombinant human or mouse IL1RAP proteins (Sino Biological, Beijing, China; Cat #10121-H08H and Sino Biological, Cat #52657-M08H respectively) were diluted in PBS, pH 7.4 at concentration of 1 μg/ml, coated on high-binding 384-well clear plates and incubated overnight at 4° C. Following, plates were washed 3× with 0.05% Tween-20 in PBS, pH 7.5 and then blocked with 1% BSA in PBS for 1 hour at room temperature. After 3× washes, wells were incubated with each antibody at the highest concentration of 100 nM followed by seven serial half log dilutions (in 1% BSA and 0.05% Tween-20 in PBS) for 1 hour at room temperature. Plates were then washed 3× and incubated with […] detection antibody (Medna, TX, USA; Cat #D8212, 0.5 μg/ml diluted in 0.02% Tween-20 in PBS). After 5× washes, Supersignal ELISA Pico substrate (Thermofisher, MA, USA; Cat #37069) was applied to wells and chemiluminescent signal was read on Sprectramax L for 200 ms/well. Similarly, detection with specific κ and λ antibodies was conducted to define light chain isotyping.

[4] = molecular target: T4, recombinant human IL1RAP protein, extracellular domain His-tagged (Sino Biological, Cat #10121-H08H) (human, UniProt Q9NPH3 21-367); experiment: Octet BLI; mAb captured on anti-mouse IgG Fc sensor; huIL1RAP-His analyte
T4 construct: extracellular domain; Bought protein; The Octet analyte is printed as huIL1RAP-His (Sino Biological, lot MB08MA1301) without a catalogue number; also called huIL1RAP-His; hIL1RAP; not shown: His tag
T4 sequence (looked up): T1 sequence with F183L, P273T, T326K
Procedure: as §1, §2

[5] = molecular target: T2, IL1RAP on HEK-Blue IL1β / HEK-Blue IL33 …; experiment: cell-based or functional assay; remark: listed apart in the source

Kd [1]: 10.2 nM
Response [1]: 0.232
koff [1]: 0.00259 s⁻¹
kon [1]: 254000 M⁻¹ s⁻¹
IC50, HEK-BlueIL33 NFκB Reporter Assay [2]: 3.54e-09 M (implied; unit not printed)
Max % Inhibition at 200 nM, HEK-BlueIL33 NFκB Reporter Assay [2]: 85%
binding result [3]: no binding (tested: 100 nM)
Kd [4]: 2.19 nM
Response [4]: 0.249
koff [4]: 0.000478 s⁻¹
kon [4]: 218000 M⁻¹ s⁻¹
IC50, HEK-BlueIL1β NFκB Reporter Assay [5]: 5.32e-10 M (implied; unit not printed)
Max % Inhibition at 200 nM, HEK-BlueIL1β NFκB Reporter Assay [5]: 101%
B1: STLX2021 (antibody, V domains shown)
VH: EVQVVESGGGLVKPGGSLRLSCAASGFIFSKAWMSWVRQAPGKGLEWVGRIKSKTDGGTTDYAAPVKGRFTISRDDSKNTLYLQMNSLKTEDTAVYYCTTGGYVFDYWGQGALVTVSS
VL: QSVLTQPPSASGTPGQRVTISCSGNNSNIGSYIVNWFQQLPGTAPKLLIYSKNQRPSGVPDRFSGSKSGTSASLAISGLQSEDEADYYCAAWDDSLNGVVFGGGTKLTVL
notes: Purified from hybridoma of immunized Alivamab mice; intact IgG; captured on anti-mouse IgG Fc sensors in Octet; lambda light chain; also called 74804_21D11A

Kd [1]: 2.59 nM
Response [1]: 0.169
koff [1]: 0.000369 s⁻¹
kon [1]: 143000 M⁻¹ s⁻¹
IC50, HEK-BlueIL33 NFκB Reporter Assay [2]: 1.24e-08 M (implied; unit not printed)
Max % Inhibition at 200 nM, HEK-BlueIL33 NFκB Reporter Assay [2]: 76%
binding result [3]: no binding (tested: 100 nM)
Kd [4]: 2.24 nM
Response [4]: 0.153
koff [4]: 0.000359 s⁻¹
kon [4]: 160000 M⁻¹ s⁻¹
IC50, HEK-BlueIL1β NFκB Reporter Assay [5]: 2.31e-09 M (implied; unit not printed)
Max % Inhibition at 200 nM, HEK-BlueIL1β NFκB Reporter Assay [5]: 98%
B2: STLX2030 (antibody, V domains shown)
VH: QVQLVQSGAEVKRPGASVKVSCKASGYTFTGYYMHWVRQAPGQGLEWMGWINPYSGGTDYAQKFQDRVTMTRDTSISTAYMELSRLRSDDTAVYYCARSYYYYGMDVWGQGITVTVSS
VL: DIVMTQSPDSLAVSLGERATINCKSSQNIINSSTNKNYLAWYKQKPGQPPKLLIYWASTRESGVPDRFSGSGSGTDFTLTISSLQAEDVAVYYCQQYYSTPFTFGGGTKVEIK
notes: Purified from hybridoma of immunized Alivamab mice; intact IgG; captured on anti-mouse IgG Fc sensors in Octet; kappa light chain; also called 74804_30O16A

Kd [1]: 0.863 nM
Response [1]: 0.277
koff [1]: 0.000291 s⁻¹
kon [1]: 338000 M⁻¹ s⁻¹
IC50, HEK-BlueIL33 NFκB Reporter Assay [2]: 1.37e-09 M (implied; unit not printed)
Max % Inhibition at 200 nM, HEK-BlueIL33 NFκB Reporter Assay [2]: 98%
binding result [3]: no binding (tested: 100 nM)
Kd [4]: 0.648 nM
Response [4]: 0.261
koff [4]: 0.000273 s⁻¹
kon [4]: 422000 M⁻¹ s⁻¹
IC50, HEK-BlueIL1β NFκB Reporter Assay [5]: 1.93e-10 M (implied; unit not printed)
Max % Inhibition at 200 nM, HEK-BlueIL1β NFκB Reporter Assay [5]: 100%
B3: STLX2045 (antibody, V domains shown)
VH: EVQLVESGGGLVKPGGSLRLACAATGFTFSNVWMSWVRQGSGKGLEWVGRIKSKADGGTIDYAAPVKGRFTISRDDSKNTLYLQMNSLKTEDTAMYYCTTGELLGFDYWGQGTLVTVSS
VL: DIVMTQSPLSLPVTPGEPASISCRSGQSLLHSNGFNCLAWYLQKPGQSPQLLIYLGSNRASGVPDRFSGSGSGTDFTLKISRVEAEDVGVYYCMQTLQTPITFGQGTRLEIK
notes: Purified from hybridoma of immunized Alivamab mice; intact IgG; captured on anti-mouse IgG Fc sensors in Octet; kappa light chain; also called 74804_45C18A
